# Results reported in US20120213799A1 (published 2012).
# T1: soluble hFKN-SEAP (extracellular region of human fractalkine conjugated to secreted alkaline phosphatase) (UniProt P78423 25-341)
# T1 chain: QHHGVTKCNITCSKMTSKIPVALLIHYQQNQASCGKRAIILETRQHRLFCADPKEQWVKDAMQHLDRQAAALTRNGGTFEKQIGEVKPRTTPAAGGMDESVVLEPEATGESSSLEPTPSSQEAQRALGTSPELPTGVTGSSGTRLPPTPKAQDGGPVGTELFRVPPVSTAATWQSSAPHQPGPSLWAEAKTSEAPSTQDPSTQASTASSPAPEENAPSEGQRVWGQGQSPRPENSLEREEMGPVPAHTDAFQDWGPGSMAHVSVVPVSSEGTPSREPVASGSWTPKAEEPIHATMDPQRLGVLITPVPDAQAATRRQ
# T2: recombinant human FKN (R&D Systems, Catalog No. 362-CX/CF) (UniProt P78423 25-100)
# T2 chain: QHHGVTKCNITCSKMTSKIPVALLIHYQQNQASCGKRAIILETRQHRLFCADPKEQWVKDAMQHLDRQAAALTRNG
# Tests used:
# Assay in all cases: BIACORE
# [1] = biological target: T1, soluble hFKN-SEAP (extracellular region …)
# cynomolgus FKN-SEAP = cynomolgus FKN-SEAP (human;)
# [2] = biological target: T2, recombinant human FKN (R&D Systems, …)
Binder,Kd [1],Kd (cynomolgus FKN-SEAP),other results
"humanized anti-hFKN mAb H3L2-IgG2 (antibody, V domains shown) VH: QVQLVQSGAEVKKPGASVKVSCKASGYTFTNYYIHWVKQAPGQGLEWIGWIYPGDGSPKFNERFKGRTTLTADKSTNTAYMLLSSLRSDDTAVYFCATGPTDGDYFDYWGQGTTVTVSS VL: DIQMTQSPSSLSASVGDRVTITCRASGNIHNFLAWYQQKPGKAPKFLVYNEKTLADGVPSRFSGSGSGTQYTLTISSLQPEDFATYFCQQFWSTPYTFGGGTKVEIK",8.84 pM,,
"humanized anti-hFKN mAb H3-2L4-IgG2 (antibody, V domains shown) VH: QVQLVQSGAEVKKPGASVKVSCKASGYTFTNYYIHWVKQAPGQGLEWIGWIYPGDGSPKFNERFKGRTTLTADKSTNTAYMLLSSLRSEDTAVYFCATGPTDGDYFDYWGQGTTVTVSS VL: DIQMTQSPSSLSASVGDRVTITCRASGNIHNFLAWYQQKPGKAPKLLIYNEKTLADGVPSRFSGSGSGTDYTLTISSLQPEDFATYFCQQFWSTPYTFGGGTKVEIK",5.34 pM,,
"humanized anti-hFKN mAb H3-L4-IgG2 (antibody, V domains shown) VH: QVQLVQSGAEVKKPGASVKVSCKASGYTFTNYYIHWVKQAPGQGLEWIGWIYPGDGSPKFNERFKGRTTLTADKSTNTAYMLLSSLRSDDTAVYFCATGPTDGDYFDYWGQGTTVTVSS VL: DIQMTQSPSSLSASVGDRVTITCRASGNIHNFLAWYQQKPGKAPKLLIYNEKTLADGVPSRFSGSGSGTDYTLTISSLQPEDFATYFCQQFWSTPYTFGGGTKVEIK",6.43 pM,,
"H3L4 (antibody, V domains shown) VH: QVQLVQSGAEVKKPGASVKVSCKASGYTFTNYYIHWVKQAPGQGLEWIGWIYPGDGSPKFNERFKGRTTLTADKSTNTAYMLLSSLRSDDTAVYFCATGPTDGDYFDYWGQGTTVTVSS VL: DIQMTQSPSSLSASVGDRVTITCRASGNIHNFLAWYQQKPGKAPKLLIYNEKTLADGVPSRFSGSGSGTDYTLTISSLQPEDFATYFCQQFWSTPYTFGGGTKVEIK",,12 pM,
"HK2L4 (antibody, V domains shown) VH: QVQLVQSGAEVKKPGASVKVSCKASGYTFTNYYIHWVRQAPGQGLEWIGWIYPGDGSPKFNERFKGRTTMTADTSTSTAYMELSSLRSEDTAVYFCARGPTDGDYFDYWGQGTTVTVSS VL: DIQMTQSPSSLSASVGDRVTITCRASGNIHNFLAWYQQKPGKAPKLLIYNEKTLADGVPSRFSGSGSGTDYTLTISSLQPEDFATYFCQQFWSTPYTFGGGTKVEIK",,26 pM,
"humanized anti-hFKN mAb H3-2L2-IgG2 (antibody, V domains shown) VH: QVQLVQSGAEVKKPGASVKVSCKASGYTFTNYYIHWVKQAPGQGLEWIGWIYPGDGSPKFNERFKGRTTLTADKSTNTAYMLLSSLRSEDTAVYFCATGPTDGDYFDYWGQGTTVTVSS VL: DIQMTQSPSSLSASVGDRVTITCRASGNIHNFLAWYQQKPGKAPKFLVYNEKTLADGVPSRFSGSGSGTQYTLTISSLQPEDFATYFCQQFWSTPYTFGGGTKVEIK",5.92 pM,,
"mouse anti-hFKN mAb clone 3A5-2 (antibody, V domains shown) VH: QVQLQQSGPELVKPGASVKMSCKASGYTFTNYYIHWVKQRPGQGLEWIGWIYPGDGSPKFNERFKGKTTLTADKSSNTAYMLLSSLTSEDSAIYFCATGPTDGDYFDYWGQGTTLTVSS VL: DIQMTQSPASLSASVGETVTITCRASGNIHNFLAWYQQKQGKSPQFLVYNEKTLADGVPSRFSGSGSGTQYSLKINSLQPEDFGIYFCQQFWSTPYTFGGGTKLEIK",,,Kd [2]: 600 pM
"mouse-human chimeric 3A5-2 mAb (antibody, V domains shown) VH: QVQLQQSGPELVKPGASVKMSCKASGYTFTNYYIHWVKQRPGQGLEWIGWIYPGDGSPKFNERFKGKTTLTADKSSNTAYMLLSSLTSEDSAIYFCATGPTDGDYFDYWGQGTTLTVSS VL: DIQMTQSPASLSASVGETVTITCRASGNIHNFLAWYQQKQGKSPQFLVYNEKTLADGVPSRFSGSGSGTQYSLKINSLQPEDFGIYFCQQFWSTPYTFGGGTKLEIK",7.13 pM,,

# Now from value to binder, other results behind:
Kd [1],Kd (cynomolgus FKN-SEAP),Binder,other results
,7.71 pM,"H3-2L4 (antibody, V domains shown) VH: QVQLVQSGAEVKKPGASVKVSCKASGYTFTNYYIHWVKQAPGQGLEWIGWIYPGDGSPKFNERFKGRTTLTADKSTNTAYMLLSSLRSEDTAVYFCATGPTDGDYFDYWGQGTTVTVSS VL: DIQMTQSPSSLSASVGDRVTITCRASGNIHNFLAWYQQKPGKAPKLLIYNEKTLADGVPSRFSGSGSGTDYTLTISSLQPEDFATYFCQQFWSTPYTFGGGTKVEIK",
,6.75 pM,"H3-2L2 (antibody, V domains shown) VH: QVQLVQSGAEVKKPGASVKVSCKASGYTFTNYYIHWVKQAPGQGLEWIGWIYPGDGSPKFNERFKGRTTLTADKSTNTAYMLLSSLRSEDTAVYFCATGPTDGDYFDYWGQGTTVTVSS VL: DIQMTQSPSSLSASVGDRVTITCRASGNIHNFLAWYQQKPGKAPKFLVYNEKTLADGVPSRFSGSGSGTQYTLTISSLQPEDFATYFCQQFWSTPYTFGGGTKVEIK",
,9.62 pM,"H3L2 (antibody, V domains shown) VH: QVQLVQSGAEVKKPGASVKVSCKASGYTFTNYYIHWVKQAPGQGLEWIGWIYPGDGSPKFNERFKGRTTLTADKSTNTAYMLLSSLRSDDTAVYFCATGPTDGDYFDYWGQGTTVTVSS VL: DIQMTQSPSSLSASVGDRVTITCRASGNIHNFLAWYQQKPGKAPKFLVYNEKTLADGVPSRFSGSGSGTQYTLTISSLQPEDFATYFCQQFWSTPYTFGGGTKVEIK",
,6.62 pM,"chimeric (antibody, V domains shown) VH: QVQLQQSGPELVKPGASVKMSCKASGYTFTNYYIHWVKQRPGQGLEWIGWIYPGDGSPKFNERFKGKTTLTADKSSNTAYMLLSSLTSEDSAIYFCATGPTDGDYFDYWGQGTTLTVSS VL: DIQMTQSPASLSASVGETVTITCRASGNIHNFLAWYQQKQGKSPQFLVYNEKTLADGVPSRFSGSGSGTQYSLKINSLQPEDFGIYFCQQFWSTPYTFGGGTKLEIK",
